Source: patent publication US20080050380A1

Tests used:
[1] = target: human TANGO 268 (glycoprotein VI, GPVI), full length (human) (UniProt Q9HCN6); assay: flow cytometry on washed human platelets
[2] = target: soluble human GPVI-Fc (the extracellular domain of GPVI fused to Fc) (human) (UniProt Q9HCN6); assay: SPR (BIAcore), GPVI-Fc coupled to the chip, bivalent model
[3] = target: baboon GPVI on baboon platelets (baboon); assay: flow cytometry on washed baboon platelets
[4] = target: soluble human GPVI-Fc (the extracellular domain of GPVI fused to Fc) (human) (UniProt Q9HCN6); assay: 125I-convulxin binding to GPVI-Fc captured on mAb 1P10.2, 10 µg/ml antibody; convulxin is the blocked partner
[5] = target: soluble human GPVI-Fc (the extracellular domain of GPVI fused to Fc) (human) (UniProt Q9HCN6); assay: ELISA, 5 nM GPVI-Fc with 10 µg/ml antibody on collagen-coated wells; collagen is the blocked partner
[6] = target: collagen type I; assay: cell-based or functional assay

soluble human GPVI-Fc (the extracellular domain of GPVI fused to Fc) (human), sequence (Q9HCN6 other isoform, or with tags, fused parts or gaps): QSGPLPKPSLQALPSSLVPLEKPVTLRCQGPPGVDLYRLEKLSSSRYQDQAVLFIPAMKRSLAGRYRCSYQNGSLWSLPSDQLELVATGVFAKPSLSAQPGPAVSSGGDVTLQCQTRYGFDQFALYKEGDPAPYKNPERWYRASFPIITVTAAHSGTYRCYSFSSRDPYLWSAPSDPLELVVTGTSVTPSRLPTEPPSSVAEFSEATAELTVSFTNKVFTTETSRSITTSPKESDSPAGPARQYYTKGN
human TANGO 268 (glycoprotein VI, GPVI), full length (human), sequence (Q9HCN6 other isoform, or with tags, fused parts or gaps): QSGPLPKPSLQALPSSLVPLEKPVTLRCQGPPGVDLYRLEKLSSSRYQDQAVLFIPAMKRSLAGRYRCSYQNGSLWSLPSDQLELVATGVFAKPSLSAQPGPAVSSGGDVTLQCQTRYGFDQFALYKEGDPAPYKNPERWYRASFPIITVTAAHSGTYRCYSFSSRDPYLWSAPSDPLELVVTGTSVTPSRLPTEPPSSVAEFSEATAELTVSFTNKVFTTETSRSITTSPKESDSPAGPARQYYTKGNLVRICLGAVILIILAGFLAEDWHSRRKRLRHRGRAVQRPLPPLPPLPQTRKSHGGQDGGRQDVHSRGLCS

concentration of rhusGPVI:Fc needed to inhibit collagen-induced activation, against that needed for Cvx [6]	Substance	Human fluorescence intensity [1]	Human platelets % positive [1]	Kd [2]	Baboon fluorescence intensity [3]	Baboon platelets % positive [3]	% of Inhibition of convulxin binding of hrGPVI [4]	% of Inhibition of collagen binding of hrGPVI [5]
–	mouse monoclonal antibody produced by hybridoma cell line 9012.2	14	21%	18 nM	18	33.8%	75%	58%
10 fold	recombinant human soluble GPVI:Fc fusion protein (rhusGPVI:Fc) (from UniProt Q9HCN6 21-269)	–	–	–	–	–	–	–
